The numbers were not newly measured in publication PMC12667676, which cites them from elsewhere.

The series has as its target MCHR1 (Homo sapiens) (UniProt Q99705).
Sequence of UniProt Q99705 (Q99705 whole entry): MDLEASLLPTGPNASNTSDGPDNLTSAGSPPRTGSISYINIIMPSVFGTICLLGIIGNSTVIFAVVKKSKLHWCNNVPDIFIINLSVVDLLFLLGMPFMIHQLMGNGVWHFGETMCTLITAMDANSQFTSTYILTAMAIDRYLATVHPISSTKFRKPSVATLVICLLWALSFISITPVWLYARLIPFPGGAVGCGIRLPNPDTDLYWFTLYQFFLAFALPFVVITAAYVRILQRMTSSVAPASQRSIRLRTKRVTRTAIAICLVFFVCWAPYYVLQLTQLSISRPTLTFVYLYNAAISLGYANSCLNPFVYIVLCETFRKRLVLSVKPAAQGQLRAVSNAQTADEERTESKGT

What is called Kd is the equilibrium constant for the complex coming apart. As for “melanin-concentrating hormone (from UniProt P20382)”, the Kd is 3.1 nM.
